Assay: yeast display, Sf9 membrane polyspecificity reagent, FACS + sequencing; frameworks hold sequencing errors
How it was run: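 After 36–48 hours of galactose induction, yeast (Saccharomyces cerevisiae BJ5465) displaying a synthetic nanobody library were stained at 4 °C for 1 hour with 10% biotinylated, detergent-solubilized Sf9 membrane reagent. Streptavidin microbeads enriched the stained cells before FACS sorting into low and high (top ~1%) gates on anti-HA and streptavidin fluorescence. Each clone's polyreactivity label reflects its gate of origin.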

Row | Sequence | polyreactivity (PSR sort gate)
1 | QVQLVESGGGLVQAGGSRLSCAASGRIFPVYAMGWYIQAPGKERELVAGINSSGDNTYYADSVKGRFTISRDNAKNTVYLQMNSLKPEDTAVYYCAAYYPYYVPYGFDYCGQGTQVTVSS | low polyreactivity
2 | QVQLVESVGGLVQAGGSLRLSFAASGSTFDVYAMGWYRQAPGKERELVAAIRSSGGSTFYADSVKGRFTISRDNAKNIVYLQMNSLNPEDTAVYYCAARSFVVSGYNKYYEYGYWGQGTQVTVSS | low polyreactivity
3 | QVQLVESGGGLVQAGGSLRLSCAASGFTFYLNAMGWYRQAPGKERELVAAITGSGDDTYYADSVKGRFTISRDNAKNTVYLQMNSLKPEDTAVYYCAADVSYWYDYWGQGTQVTVSS | high polyreactivity
4 | QVQLVESGGGIVQAGVSLRLSCAASGITFIRYAMGWYRQAPGKERELVAAISSSGGSTYYADSVKGRFTISRDNAKNTVYLQMISLKPEDTAVYYCAARIPDRQDGYGYWGQGTQVTVSS | high polyreactivity
5 | QVQLVESGGGIVQAGGSLRLSCAGSGGILGDNTMGWYGHAPGKERELGASITRGGTTNYADSLTGRFTISREHAKNTVYFQKISLKPVDTAVYYCNAAVERFGDSPDYDYWGQGTQVTVSS | low polyreactivity
6 | QVQLVESGGGLVQAGGSLRLSCAASGNTLRPNGMGWYRQAPGKERELVAAISSGGSPYYADSVKGRFTISRDNAKNTVYLQMNSLKPEDTAVYYCAAEYWYDYWGQGTQVTVSS | low polyreactivity
7 | QVQLEESGGGLVQAGGSLRLSCAASGRNLEVYAMGWNRKAPGKERELVAAIRWSDGNTYYADSVKGRFTISRDIAKNTVYLQMNSLKPEDTAVYYCAARTPGGYDWGQGTQVTVSS | high polyreactivity
8 | QVQLVESGGGLVQAGGSLRLSCAASGSIFLVNAMGWYRQAPGKERELVAAIRGSGGSTYYADSVKGRFTISRDNAKNTVYLQMNSLKPEDTAVYYCAADIWRLAYDYWGQGTQVTVSS | low polyreactivity
9 | QVQLVESGGGLVQAGGSLRLSCAPSGRTFGGYVRGRYRQAPGKERELVATITYSGGSTHYADSVKGRFTISRDNAKITVYLQMNSLKPEDTAVYYCARRRSYRYPSEYNYWGQGTQVTVSS | high polyreactivity
10 | QVQLVESGGGLVQAGGSLRLSCAASGRIFSPYAMGWYRQAPGKERELVARISWRGSRTYYADSVKGRFTISRDNAKNTVYLQMNSLKPEDTAVYYCNAVFYRKPLRRDYWVQGTQVTVSS | high polyreactivity
11 | QVQLVESGGGLVQAGGSLRLSCAASGRTFFGNAKGWYRQAPGKERELVAAISWRGGSTYYADSVKGRFTISRDNAKKTVYLQMNSLKPEDTAVYYCATGRYGYGYWGQGTQVTVSS | high polyreactivity
12 | QVQLVESGGGLVQAGGSLRLSCAASGFTLSGNAMGWYRQAPGKERELVAAINGSGGSTYYADSVKGRFTISRDNAKNTVYLQMNSLKPEDTAVYYCAAAGSYGQAYSIFTLDSWGPGTQVTVSS | low polyreactivity
13 | QVQLVESGGGLVQAGGSLRLSCAASGSIFPVNAMGWYRQAPGKEREWVAAISVSGGRTYYADSVKGRFTISRDNAKNTVYLQMNSLKPEDTAVYYCNKLLARGYASGYDYWGQGTQVTVSS | high polyreactivity
14 | QVQLVESGGGLVQEGGSLRLSCAASGSTFHSYAMGWYRQAPGKERELVAGINRTGGSTYYADSVKGRFTISRDNAKNTVYLQMNSLKPEDTAVYYCAAVSYYASDYRYDYWGQGTQVTVSS | low polyreactivity
15 | QVQLVESGGGLVQAGGSLRLSCAASGFTFPLYAMGWYRQAPGKERELVAVISRSGGSTYYADSVKGRFTISRDNAKNTVYLQMNSLKPEDTAVYYCATRRRPQYNKYDYWGQGTQVTVSS | high polyreactivity
16 | QVQLVESGGGLVQARGSLRLSCAASGSTFDYYAMGWYRQAPGKEWELVAAIDTSGDDTYYADSVKGRFTISRDNAKNTVYLQMNSLKPEDTAVYYCAADFPYDEVDYWGQGTQVTVSS | low polyreactivity
17 | QVQLVESGGGIVQAGGSLRLSCAASGRIFAYNAMGWYRQAPGKDRELVAAISSGGNTYYADSVKGRFTISRDNAKNTVYLQMYRLKPEDTAVYYCNAGVGWHRYYSNYDYWGQGTQVTVSS | low polyreactivity
18 | QVQLVESGGGLVQAGGSLRLSCAASGSTLASYARGWYRQAPGKERELVAAISSSGGSTYYADSVKGRFTISRDNAKNTVYLQMNSLKPEDSEVYYCAARTRTRYGIDYYWGQGTQVTVSS | high polyreactivity
19 | QVQLVESWGGLVQAGGSLRLSCAASGSIFRPYAMGWYRQAPGKERELVAAISSSGGSTYYADSVKGRFTISRDNAKNTVYLQMNSLKPEDTAVYYCAAESRSTWIHSRDYWGQGTQVTVSS | low polyreactivity
20 | QVQLVESGGGLVQAGGSLRLSCAASGSIFRGYDMGWYRQAPGKERELVARISRGTGTHYADSVKGRFTISRDNAKNTVYLQMNSLKPEDTAVYYCAARYRYYPVTTRGYYWGQGTQVTVSS | high polyreactivity
21 | QVQLVESGGGLVQAGGSLRLSCAATGGTFEFYTMGWYRQAPGKERELVAVINASGDSTYYADSVKGRFTISRDNAKNTVYLQMNSLKPEDTAVYYCAADNQGYTTKWRREYYYWGQGTQVTVSS | low polyreactivity
22 | QVQLVESGGGLVQAGGSLRLSCAASGFTFYGYAMGWYRQAPGKEREFVADISSRDGSTYYADSVKGRFTISRDNAKNTVYLQMNSLKPEDTAVYYCAADSGQYKWSDYDYWGQGTQVTVSS | low polyreactivity

Row | Sequence | polyreactivity (PSR sort gate)
23 | QVQLVESGGGLVQAGGSLRLSCAASGRTFRPNAMGWYRQAPGKERELVASITRRGGTTYYADSVKGRFTNSRDNAKNTVYLQMNSLKPEDTAFYYCIGPRGYSSTRNGYWGQGTQVTVSS | high polyreactivity
24 | QVQLVESGGGLVQAGGSLRLSCAASGRIFGHYARGWYRQAPGKERELVAAITSGGRTYYADSVKGRFTISRDNAKNTVYLQMNSLKPEDTAVYYFNVRVFVGLQPFGYWGQGTQVTVSS | high polyreactivity
25 | QVQLVESGGGLVQAGGSLRLSCADSGFTFAANTMGWYRQAPGKARELVADISGRGDRTSYADSVKGRFTISRDNAKNTVYLQMNSLKPEDTAVYYCAVDIYYYSNVHYYYWGQGTQVTVSS | low polyreactivity
26 | QDQLVESGGGLVQAGGSLRLSCAASGRIFQANAMGWYRQAPGKERELVASISSGGSTNYADSVKGRFTISRDNAKNTVYLQMNRLKPEDTAVYYCAARHPSSAYWVGYYWYDYWGQGTQVTVSS | low polyreactivity
27 | QVQLVESGGGLVQAGGSLRLSCAASGSIFRFYTMGWYRQAPGKERELVAAIRYRVTSTYYADSVKGRFTMSRDNAKNTVYLQMNSLTPEDTAVYYCAVRRAKRRSQGVSYASYAGNYNYWGLGTQVTVSS | high polyreactivity
28 | QVQLVESGGGLVQAGGSLRLSCAASGITFDVNAMGWYRPAPGKERELVAAITAGGNTYYADSVKGRFTISRDNAKNTVYLQMNSLKPEDTAVYYCAAVSTSLYWAGYDYWGQGTQVTVSS | low polyreactivity
29 | QVQLVESGGGLVQAGGRLRLSCAASGSTFSRNTMGWYRQAPGKESELVAAISKSGGRTYYADSVKGRFTISRDNAKNTVYLQMNSLKPEDTAVYYCNGVKLLGTRGYGYLGQGTQVTVSS | high polyreactivity
30 | QVQLVESGGGLVQAGGSLRLSCAASGFILDYYDMGWYRQAPGKERELVAGINYGGDSTYYADSVKGRFTISRDNAKNTVYLQMNSLKPEDTAVYYCAADLYFQYPEYDYWGQGTQVTVSS | low polyreactivity
31 | QVQLVESGGGLVQAGGSLRLSCAASGSTFPEYGMGWYRQAPGKERELVAAINSRGGNTYYADSVKGRFTISRDNAKKTVYLQMNSLKPEDTAVYYCNRLSSYNMDYWGQGTQVTVSS | high polyreactivity
32 | QVQLVESGGGLVQAGGSLRLSCAASGLPFKSNAMGWYRQAPGKERELVASISKRGGTTYYADSVKGRFTISRDNAKNTVYLQIKSLKPEDTAVYYCAAQSRATTYSWWTGSDYWGQGTEVTVSS | high polyreactivity
33 | QVQLVETGGGLVQAGGSLRLSCAASGSIFTRYVMGWYRQAPGKERELVAAISRSSGRTYYADSVKGRFTISRDNAKNTVYLQMNSLKPEDTAVYYCAAYAVESYKYDYWGQGTQVTVSS | high polyreactivity
34 | QVQLVESGGGLVQAGGSLRLSCAASGRIFVHYASGWYRQAPGKERELVAAISWNGGRTFYADSVKGRFTISRDNAKNTVYLQMNSLKPEDTAVYYCAARSRYSLDYWGQGTQVTVSS | high polyreactivity
35 | QVQLVESGGGLVQAGGSLRLSCAASGFTFIQYAMGWYRQAPGKERELVAAISVSGGSTYYADSVKGRFTISRDNAKNTVYLQMNSLKPEDTAVYYCNTVTSGFLSYDYWGQGTQVTVSS | high polyreactivity
36 | QVQLVESGGGLVQAGGSLRLSCAASGFIFWPYAMGWYRQAPGKERELVAAITTGGSTNYADSVKGRFTISRDNAKNTVYLQMNSLKPEDTAVYYCAKGYYFGYYEFDYWGQGTQVTVSS | high polyreactivity
37 | QVQLVESGGGLVQAGGSLRLSCAASGFIFHHYAMGWYRPAPGKERELVAAISKSGGSTYYADSVKGRFTISRDNAKNTVYLQMNSLKPEDTAVYYCAAYKRSGLKYGHWGQGTQVTVSS | high polyreactivity
38 | QVQLVESGVGLDQAGGSLRLSCAASGSTFASYAMGWYRQAPGKERELVAAITNGGSTNYADSVKGRFTISRDNAKNTVYLLMNSLKPEDTAVYYCAAYDGFPRRYDYWGQGTQVTVSS | low polyreactivity
39 | QVQLVESGAGLVKAGGSLRLSCAASGFSFQRNAMGWYRQAPGKERELVAAINRSGGRTYYADSVKGRFTISRDNAKYTVYLQMNSLKPEDTAVYYCAADSTYEYYFWGQGTQVTVSS | high polyreactivity
40 | QVQLVESGGGLVQAGGSLRLSCAASGSTFSHYAMGLYRQAPGKERALVAAISSGANTYYADSVKGRFTISRDNAKNTVYLLMNSLKPEDTAVYYCAADYYLAYIFPYDYWGQGSQVTVSS | low polyreactivity
41 | QVQLVESGGGLVQAGGSLRLSCAASGSTFLNNAMGWYRQAPGKERELVATITSGGITNYADSVKGRFTISRDNAKNTVYLQMNSLKPEDTAVYYCNADTWGFTYYYWGQGTQVTVSS | low polyreactivity
42 | QVQLVESGGGLVQAGGSLRLSCAASGRTSYRDAMGWYRQAPGKESEFVAAISKSGTSTYYADSVKGRFTISRDNAKNTVYVQMYRLKPEDTAVYYCAAITGVGLRVNSGIGFYYWGQGTQVTVSS | high polyreactivity
43 | QVQLEESGGGLVQAGGSLRLSCAASGSIFALYTIGWSRQAPRKERELVAAISSRGGSTYYADSVKGRFTISRDNAKNTVYLQMNSLKPEDTAVYYCNAVVRESAYNFDYWGQGTQVTVSS | high polyreactivity
